According to article PMC4491180:

What was measured:
[1] = target: wild-type Grb2 (growth factor receptor-bound protein 2), bacterially expressed and purified (UniProt P62993); experiment: MST; unlabelled Grb2 (7.3 nM to about 30 μM) titrated into 100 nM Atto488-labelled Grb2; 20 °C; PBS without calcium and magnesium, 0.01% Tween 20; apparent Kd, dimer to monomers
[2] = target: wild-type Grb2 (growth factor receptor-bound protein 2), bacterially expressed and purified (UniProt P62993); experiment: MST; monomer–dimer equilibrium of Grb2 in the presence of the SOS1 peptide (…); apparent Kd, dimer to monomers

A Kd [1] of 760 nM and a Kd [2] of 700 nM were found for “wild-type Grb2 (growth factor receptor-bound protein 2), bacterially expressed and purified (from UniProt P62993 1-217) (natural protein)” in this work.
